{"source": "patent US20180339041A1", "about": "(Kyowa Kirin, published 2018)", "key": {"[1]": {"target": "T1, C-terminally FLAG-tagged human Gas6 recombinant protein (hGas6-F) (human, UniProt Q14393 31-678, gamma-carboxylated glutamic acid residues in the Gla domain (producer cells co-express rat VKOR and human GGCX); positions not given)", "T1 sequence": "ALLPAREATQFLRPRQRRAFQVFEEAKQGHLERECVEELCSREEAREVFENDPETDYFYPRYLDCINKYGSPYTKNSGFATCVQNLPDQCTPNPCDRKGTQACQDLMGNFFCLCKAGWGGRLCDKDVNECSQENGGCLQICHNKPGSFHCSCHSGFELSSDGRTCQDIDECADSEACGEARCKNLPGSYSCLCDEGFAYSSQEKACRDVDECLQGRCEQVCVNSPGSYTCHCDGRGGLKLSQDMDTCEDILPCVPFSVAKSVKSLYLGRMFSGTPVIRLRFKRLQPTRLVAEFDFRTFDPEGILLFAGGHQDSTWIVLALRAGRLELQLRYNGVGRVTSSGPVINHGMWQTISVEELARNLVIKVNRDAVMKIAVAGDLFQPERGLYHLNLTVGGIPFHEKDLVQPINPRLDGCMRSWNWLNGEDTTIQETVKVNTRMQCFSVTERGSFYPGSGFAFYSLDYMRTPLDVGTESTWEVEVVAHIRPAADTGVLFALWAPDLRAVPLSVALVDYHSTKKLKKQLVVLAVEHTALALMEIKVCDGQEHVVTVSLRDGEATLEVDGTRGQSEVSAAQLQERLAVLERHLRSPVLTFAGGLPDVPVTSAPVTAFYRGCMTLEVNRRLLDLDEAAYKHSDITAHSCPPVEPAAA", "assay": "cell-based or functional assay"}, "[2]": {"target": "T1, C-terminally FLAG-tagged human Gas6 …", "assay": "competitive ELISA, hAxl-hFc immobilised, 50 ng/mL hGas6-F"}, "[3]": {"target": "T2, C-terminally FLAG-tagged mouse Gas6 recombinant protein (mGas6-F) (mouse, UniProt Q61592 28-674, limits assumed, gamma-carboxylated glutamic acid residues in the Gla domain (producer cells co-express rat VKOR and human GGCX); positions not given)", "T2 construct": "also called mouse Gas6-F", "T2 sequence (looked up)": "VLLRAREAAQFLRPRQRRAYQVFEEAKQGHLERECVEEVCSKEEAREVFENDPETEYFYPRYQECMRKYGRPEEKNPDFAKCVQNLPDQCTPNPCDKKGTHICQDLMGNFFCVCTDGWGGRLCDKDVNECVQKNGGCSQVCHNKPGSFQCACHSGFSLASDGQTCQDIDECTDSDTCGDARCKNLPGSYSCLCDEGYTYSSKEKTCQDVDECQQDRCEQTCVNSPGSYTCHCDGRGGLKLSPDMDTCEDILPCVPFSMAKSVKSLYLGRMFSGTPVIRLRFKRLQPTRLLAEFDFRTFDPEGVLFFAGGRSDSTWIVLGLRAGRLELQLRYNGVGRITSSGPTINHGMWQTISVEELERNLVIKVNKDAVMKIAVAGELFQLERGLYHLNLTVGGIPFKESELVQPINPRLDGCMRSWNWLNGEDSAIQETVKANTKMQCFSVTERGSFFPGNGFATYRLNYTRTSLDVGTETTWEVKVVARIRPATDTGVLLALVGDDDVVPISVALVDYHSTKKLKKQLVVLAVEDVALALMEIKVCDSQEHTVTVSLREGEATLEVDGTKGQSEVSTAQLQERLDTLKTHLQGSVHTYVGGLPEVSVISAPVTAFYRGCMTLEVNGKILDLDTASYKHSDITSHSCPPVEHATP", "assay": "competition ELISA: mAxl-mFc coated; mGas6-F at 50 ng/mL final premixed with the antibody; bound Gas6-F detected with anti-FLAG M2-HRP; blocked partner mAxl-mFc (Examples 5(4) and 7) [C]"}}, "data": [{"binder": "anti-human Gas6 mouse monoclonal antibody KM5320 (KM5320-mKG1 antibody) (antibody, V domains shown, Hybridoma-derived mouse IgG1, kappa; also called KM5320 antibody) VH: QIQLVQSGPELKKPGETVKISCKASGYTFTNYGMNWVKQAPGKGLKWMGWINTETGEPTYSDDFKGRFAFSLETSATTAYLQINNLRNEDMATYFCAREDGYYGTLDYWGQGTSVTVSS VL: SIVMTQTPKFLLVSAGDRVTITCKASQSVSNDVAWYQQKPGQSPKVLIYYASNRYTGVPDRFTGSGYGTDFTFTISTVQAEDLAVYFCQQDYSSPWTFGGGTKLEIK", "values": [{"measurement": "antibody:Gas6 molar concentration ratio at complete inhibition of reporter activation", "setting": "[1]", "value": "2 antibody:Gas6 molar ratio"}, {"measurement": "antibody:Gas6 molar concentration ratio at complete inhibition", "setting": "[2]", "value": "2 antibody:Gas6 molar ratio"}, {"measurement": "IC50 (read off the curve)", "setting": "[3]", "value": "~0.09", "unit": "µg/mL"}]}, {"binder": "anti-human Gas6 mouse monoclonal antibody KM5321 (KM5321-mKG1 antibody) (antibody, V domains shown, Hybridoma-derived mouse IgG1, kappa; also called KM5321 antibody) VH: QIQLVQSGPELKKPGETVKISCRASGYTFTNYGMNWVKQAPGKGLKWMGWINTNTGEPTYTEEFKGRFAFSLETSATTAYLQINDLKNEDTATYFCARDEGWFVYWGQGTLITVSA VL: ETTVTQSPASLSVATGEKVTIRCITSTDIDDDMNWYQQKPGEPPKLLISEGNTLRPGVPSRFSSSGYGTDFVFTIENTLSEDVADYYCLQTDSVPLTFGAGTKLELK", "values": [{"measurement": "antibody:Gas6 molar concentration ratio at complete inhibition of reporter activation", "setting": "[1]", "value": "2 antibody:Gas6 molar ratio"}, {"measurement": "antibody:Gas6 molar concentration ratio at complete inhibition", "setting": "[2]", "value": "0.5 antibody:Gas6 molar ratio"}, {"measurement": "IC50 (read off the curve)", "setting": "[3]", "value": "~0.03", "unit": "µg/mL"}]}]}
